From the DeepSol protein solubility set

assay: soluble on expression in E. coli; label from the status in PepcDB or PDB records

Q: With “MKVGSQVIINTSHMKGMKGAEATVTGAYDTTAYVVSYTPTNGGQRVDHHKWVIQEEIKLEHHHHHH” as the sequence, how does the “soluble on expression in E. coli” value read?
A: not soluble

Q: With “MFKQFIEDAKSIAERDPAATSVLEVIFLYSGFHAVCLHRIAHWFYKRNMRFIARFISQLNRFLTGVEIHPGAKIGKGLFIDHGMGVVIGETAEVGDNCTIYHNVTLGGTGKDKGKRHPTIGNNVLISTGAKVLGPFKVGDNSRIGANAVVLNEVEPNTTVVGVPGRAVKRGNQKIVPSIELDQIHIPDPVAQELCRIKQRLESLEKELMEMRRASQGSNVQEPVPQEKSCEEECKLEMGKEIADNETL” as the sequence, how does the “soluble on expression in E. coli” value read?
A: not soluble

Q: Which “soluble on expression in E. coli” value does the source give for “MNRQIPKVPDAIELEYDLDEPPQKVWRAISIPAFREHWLPKEALAQPEAIKVSPGREVCYRLREDTPPFLESTVTFQIASNDRGGTSLRIIHDLPAIKSGRMTKAAANHNGSPIKLAALEHHHHHH” here?
A: not soluble

Q: With “MEWKPNRADKTPVYKQIADYIERGISSGEFPSDSKLPSERMLAKELQVNRSTIVAAYEELKSLGVVERQKGSGTRVNTDIWGVSHKRIPNWGRYVEDGSFLPNVPLVQQIRTETQKDDLINLASGELSPELIPSDRFRTILSEKTFMENLGYDHPLGNEMLRKTIAAHVQQYKQIEADSSSILITSGAQQALNLIVQCLLKPGDAIAIEDPSYCFSLPMFKSAGLNIFHLPVDEHGMNPDDLIDLHKKHRIRMVFLNPDYQNPTGTVLSLARRKKILELSSEFGIPIVEDDPYSLISFNGEVNPTLKSMDQNGNVLYISSLSKIVASGLRIGWIIGPTRVIERLADAKQQVDFGHSVFTQWVANQFLESKDFHKHITILRGQLKQRRDVLIAELEGTLGDRVECFVPEGGIHVWCKVKGKFDEYHLLGESIQNGVAFVPGSVLGSKNEYIRFTFGRANIEQIQLGIKRFADTLNEIS” as the sequence, how does the “soluble on expression in E. coli” value read?
A: not soluble

Q: For “MGSDKIHHHHHHMRYVKLHSEYFPEFFNRLKEVGRVYGPVRHNSTYRFEEVNSIDELSLDYTRTILPPKKFFIRPRDAMFKIQKNEVTEVDGDGKFVLFGVHSCDIHGIKILDKVYLSNPPDPYYERRRKNAFIVGISCMPDEYCFCKSLGTDFAMDGFDIFLHELPDGWLVRVGSVKGHEFVWENQDIFDDVTEEDLRNFKEFEEKRAKAFKKSLNKEGLADILDLAFTSKVWKKYAEKCLGCGNCTIVCPTCRCYEVCDTWVRAYEALRMRRYDSCFMPTHGLVAGGHNFRPTRLDRFRHRYYCKNYFDPEAGFNCVGCGRCDEFCPARIEHVKVLDEVREGLI”, which “soluble on expression in E. coli” value is on record?
A: not soluble

Q: With “MDTLDGLKTVVAVVETNSFTAASDRLGISKALVSKYVGEVENQLGIRLFNRTTRQLALTDSGRRYYEEAIILLEQFSAMVDNVTGEQTAPRGLLRISAPVTFGEMRLAPLLPKFIALYPDLTVELVLTNGAIDMLEEGIDVRLRIGGVDDSNMIARHLTNFPLVLSASPNYAQTQGLPTTPEQLGEHHCIIDSNFRIGKQWPFISPKGRAETINVQSGLAVNSPQAVREIAIADGGIAMTPNFIVEDALADGRLLRVMPEYTTLEFGLFAIYPHRKYVARKVRCFIDFVLEQFSKK” as the sequence, how does the “soluble on expression in E. coli” value read?
A: not soluble

Q: With “MGKEYVVIGLGRFGGSIVRELNALDMDVMAIDHDENRVNEYSDIATHAVVADTTDEAVMKSLGIRNFDHVIVAIGENIQSSTLTTLILKELGVKKVTAKAQNDYHAKILNKIGADTVVHPERDMGRRIAHNVASASVLDYLELADEHSIVELKATEKMAGQSIIDLDIRAQYGINIIAIKRGKEFIISPNPNINLEIGDILIMIGHDNDLNRFEKNIATR” as the sequence, how does the “soluble on expression in E. coli” value read?
A: not soluble

Q: Which “soluble on expression in E. coli” value does the source give for “MSSSDAFWRMFANKNKGKSNTRSAFQVVKEEQPSTSTEPDDKKPLHHEIAGEMIKNPAKGKRKRVQIKNDEYEQLMMLGVPVRVPRGLSLYSTQKLMIVRILTALKNSQNVLGESPTGSGKTMALLASTCAWLKQYIDEKRESKEKCEIHGFSGKTQVVFTNDIGIPLESKVYEEPPEEEEFIEPVPVKNDKLFEAQWEHDFTPHTPGETPPVTLKEELEPVKKPEPVETKCTCLPRVRIYYGTRTHKQIAQVVKEFSRLPYAKILKHTILASREQSCINPAARKHADISQYCKEVNSAHSIGCSFKSAMKPRFEKALPLRDHLERNGTVVFDMEKIVETLAISYPQLCPYFSTNRILTQDADIIFCPFSYLVDPLIRNSSDVQIRNSIVILDEAHNIEDTCREAASFSFTEKELDDSILSLRIKRKAVDTELDKTGIEEKLLHIPDREVHLKEFRGHLLYLEHLILEMLRWIRQVSTEAKTPARGGQDGVKTCTISSANLFTSLTDPENGVDLFTPPLTPKHAAVAASFSAITKHNEPEMQYFDAFKPSSTAIVCIEKWLYFQSYFGNQQYQSTYRLNISIEPINQNGRFNHTFDADVSMSTSFGNPRPTTTRSSAGPRNMQYKEENAWLADAAADGDDWKDPSMSETGHKPISEGCKTTISLWCMSPALSFFDAFNETRSIVLASGTLCPMDTLKTELGMEFKQQVEGDQVINKDNIFAAVLPIGPFGNRIQCTYRNTSDPESSFYCELGAIIKYVCSNVPAGILCFLPSYRVLDQLKQCMIRNSTMRQIEMKKVVLYEPRRSSELTSVMDQFDAAIFDPSRFGANINGSLMFAVFRGKVSEGIDFADDRARVVISVGIPYPNAMDDQVNAKKLYNDQNSKEKGILTGDEWYTTQAYRALNQALGRCLRHKNDWGAMLMIDERLERQTGNLVGGASSARVSKWIRAQLKSYPSFKEFNANFREFIQRRHAVEKAKKENFCE” here?
A: not soluble

Q: For “MGSDKIHHHHHHMAKAKTAYSCTECGGQTPKWQGQCPSCMAWNTLVESVVEAAPSQNRYAALAQSSGLQKLADVEAADVPRHPTGIHEFDRVLGGGLVPGGVVLIGGDPGIGKSTLLLQTLCHIGGMRKAVYVSGEESAQQIAMRAKRLGLDAGPVELLAEISLEKILAILQQHKPEVAVIDSIQTLYSEALQSAPGSVAQVRECSAQLTRFAKQTGVTMILVGHVTKEGSLAGPRVLEHIVDTVLYFEGGQNSSFRLVRAFKNRFGAVNELGVFAMTEKGLREVSNPSALFLSHHAEQVAGSCITVTQEGSRPLLVEVQALVDEAHAPNPKRLCVGLEQNRLAMLLAVLHRHAGVACFDQDVFINAVGGVRISEPAVDLAVLLAIVSSLKNKPLNNKLIVFGEVGLAGEVRPVQRGQERLREAAKLGFTHAIVPKANLPKQVIDGLDVKGVERLDQALQLLRNG”, which “soluble on expression in E. coli” value is on record?
A: not soluble

Q: With “MSLDFATEYVYPAFSELTGTDKIVAFGDHSHKCPIYVPQTPPCTAECPAGEDIRAINRFLNGTDPSDDPLKSAWETATDTNPFPAVMGRICPHPCQSKCNRGVHDESVAINAVEQVLGNYGIEHNLKLKGPGADTGKRVAIIGGGPAGLSAAYQLRRKGHAVTIYDANEKLGGMVLYGIMGYRVDRKVLEAEIGRIIELGVETKMGVTIGKDITLEQLEAEYDAVFIAVGAQKGRALPVPGFEGTPGATNAIDFLKSYEVLGDDIPVGKHVVVIGDGNVSMDVARLALRLGSQATIISGVPREEMACFENEFDDAKNEGTTMHFLTGTVEVLGGASGVTGLRCTKMVKKEKGEEGWNSPIPFLRYKSNGESFEIEADMVVAAIGQATDLSGLGSAASGPWLKVDRNFRIPGREKLFGGGDALKVDLITTAVGHGRKAAYAIDAFLKGEPMPEEPYREITKPHKQDLLYFLHTPQAKRTSIKPEVVVGNHDELLEALTPEQAVTESKRCMSCGFCFDCKQCVSFCPQEAITRFRDNPAGEKVYTNYAKCVGCHLCSLVCPCGYIQMGMGDGEGHHHHHH” as the sequence, how does the “soluble on expression in E. coli” value read?
A: not soluble

Q: For “MQRCDWVSQDPLYIAYHDNEWGVPETDSRKLFEMICLEGQQAGLSWITVLKKRENYRACFHQFDPIRIAAMQEEDVERLLQNTGIIRHRGKIQAIISNARAWLAMEQNGESFADFVWSFVDGQPQITQAASLDKIPTSTPASDALAKALKKRGFKFVGTTICYSFMQACGLVNDHITGCFCHPG”, which “soluble on expression in E. coli” value is on record?
A: soluble

Q: For “MVIHQIKILQSVATSIVEGGRGVTGTPFPNQPDKPLKLYEFEGSPFSRRVREVLTLLNLDVEIYPCPKGGQKYRAIVKEKGGKLQFPFLIDENTGDQLYESQKIIHHLFKHYGKTGHTPEKYQHYPKIPVIGLIATLLNAARGVWVNKKIIHRAAPEQLLELWSFEASPYSRVVRDILTELEIPYVLHNVSKERWQDMGPAILRLKPGPYIPLAGGKRDKMLPMMQGKMQVPYLVDPNTGIHLFESAQIVAYLKKQYGEV”, which “soluble on expression in E. coli” value is on record?
A: not soluble

Q: For “MENRGILFDKDGTCIRFDTLWQAGLQACFETLSMLAPHHSAEIKKILAIQEQRFLQKHLLDEVLYQELYQELAQFEELVEQGISSRWLEQFFYDYLRKNLKKIEPIGDLKQLFLELKRKNYKIGLATSDTLPATMLIMEYLGLTEMFDFIATGDRYLPKPDADMLQAFCQSCQLKATEVIMVGDSLVDVFMGTCHGKAGIGVLTGNCQSTDFEKFEVAYFRDIHEIPYQELWENTKKKKIYYF”, which “soluble on expression in E. coli” value is on record?
A: not soluble

Q: Which “soluble on expression in E. coli” value does the source give for “MGSDKIHHHHHHMTLAEKILSQKAGRKVEPGEFLLLEPDIALANDITAPLAIKKFKEYGGKKVKYPDRVVLVPDHFTPNKDIKSAMQVKMMREFAREQGIEKFFEIGRMGIEHVLLPEEGIVKSGDLVVGADSHTCTYGALGAFATGVGSTDIAGFYLIGKVWFRVPESIKVTLRGKFKDLVTAKDLVLKLISILGVDGANYKAIEFSGPGVKEISMDGRFTISNMAIEAGGKTGLFPVDEITIAYERERGIEVEEMYPDEDAKYVREVEMDLSELEPQVAYPFLPSNAKDVSEAEKERIKIDQAVIGSCTNGRIEDLRLAAQILKGRTVSPDVRCIIIPGSQKVYKQALKEGLIDIFIDAGCAVSTPTCGPCLGGHMGVLAEGEVAISTTNRNFVGRMGHPNSKVFLASPAVAAASAIKGYIADPRKL” here?
A: not soluble

Q: For “MDRFDAMQAFARVVDTGSFTKAAETLHMSRTSVTQLVQQLEARLRVRLLNRTTRKLNLTADGAAYYERVVRLLAELDDAETSLSSAALAPRGRLRIDVPSPLARLLLIPALPEFHARYPEIQIDLGVSDRLVDLIDENVDCVIRGGELRDQSLMARRVGDLQLGVYAAPAYLQRAGVPSHPRELEDSHQRIVGFLWARTGKALPYAMRRGEECLRVAGRHVLAVDDGNAYLAAGLAGLGILWLPHYMAREPLARGELLPLFEDWSLEPMPLYLAFPPNRHVSGKLRVFIEWVAELIARHAPPLHPPL”, which “soluble on expression in E. coli” value is on record?
A: not soluble

Q: With “MGSDKIHHHHHHMSGQLHKMWYFPHMNQHEATVTDGDELQQFIAEAIALVGGVRALASIAGVSERTVYAWKNGERFPSRTNLNRLSEHLEHLSRQGYSPSAPQPHWRALRERMPGSYAPQQPDDTDRLTEEFVFVDKAEARPSAGGGSLETSARAETRYAFRLDWVLQKTPTSEGLRMMEVAGRSMENTLHNGDLVLVNERDVHLVEDRVYVVRVHDEIYVKRFARTPGCYHFRGDNRELAYQDISIDPRDENLDWEVIGRVLWAGKEL” as the sequence, how does the “soluble on expression in E. coli” value read?
A: not soluble

Q: With “SANLCKRVVDLEKYIVKEAPPTVYYIPDFISEAEEEFLLQQVYRAPKPKWTQLSGRRLQNWGGLPNPKGMLAEKLPDWLLEYTEKISALGAFAGKTANHVLVNEYKPGEGIMPHEDGPLYHPTVTTITVGSHTLLDFYRPVCQAEPDAPQTEESRYMLSLLVQRKSLLILQDDMYKCYLHGIRGVCEDVLSEHVVNISSTGAQVGDTLPRSTRVSLTIRHVPKIIRANLFLGKK” as the sequence, how does the “soluble on expression in E. coli” value read?
A: soluble

Q: For “MGSDKIHHHHHHMSDSKWKYNIIYNMEIEVLTGLHIGGSNEELKIGGTDSPVITTKYLINNVEPCDLPYIPGSSIKGKIRSLLENVDYKGKNGDDIVSKMFGYYPNAGEGIKRLTRLIIRDAFLDDGHIKSAEDARNVIEIKSENKIDPIESKATPRFIERVRRGTKFKGKIILSIYEGDNEEEMIKCLKTGISLLEDSYLGGNGTRGYGSVKITLGEPIKKGIDKYEENIKDNTSNGSEN”, which “soluble on expression in E. coli” value is on record?
A: not soluble

Q: With “MITMKISSRFSIAVHILSILKNNPSSLCTSDYMAESVNTNPVVIRKIMSYLKQAGFVYVNRGPGGAGLLKDLHEITLLDVYHAVNVVEEDKLFHIHEQPNPDCPIGANIQAVLEIILIQAQSAMEEVLRNITMGQLFETLQEKMNA” as the sequence, how does the “soluble on expression in E. coli” value read?
A: soluble
